Test results reported in article PMC8864165, “Functional Effects of ARV-1502 Analogs Against Bacterial Hsp70 and Implications for Antimicrobial Activity” (Frontiers in Chemistry, 2022).
Square brackets hold non-standard residues; d marks the D form. Ends that are not written are not given here. Cf = 5(6)-carboxyfluorescein label; Ac6c = NC1(C(=O)O)CCCCC1

T1: S. aureus GrpE (Staphylococcus aureus, UniProt P99086 1-208)
T1 construct: source: E. coli (DE3) Rosetta pLysS, purified (IMAC, TEV cleavage, second IMAC)
T1 sequence: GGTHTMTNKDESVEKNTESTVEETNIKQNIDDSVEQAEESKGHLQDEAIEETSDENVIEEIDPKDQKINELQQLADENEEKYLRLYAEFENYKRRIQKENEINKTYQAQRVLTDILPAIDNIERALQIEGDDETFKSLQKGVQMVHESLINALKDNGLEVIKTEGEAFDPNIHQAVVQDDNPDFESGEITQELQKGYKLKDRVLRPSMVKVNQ

T2: E. coli GrpE (Escherichia coli, UniProt P09372 1-197)
T2 construct: also called co-chaperone GrpE; nucleotide exchange factor GrpE; source: E. coli (DE3) Rosetta pLysS, purified (IMAC, TEV cleavage, second IMAC)
T2 sequence: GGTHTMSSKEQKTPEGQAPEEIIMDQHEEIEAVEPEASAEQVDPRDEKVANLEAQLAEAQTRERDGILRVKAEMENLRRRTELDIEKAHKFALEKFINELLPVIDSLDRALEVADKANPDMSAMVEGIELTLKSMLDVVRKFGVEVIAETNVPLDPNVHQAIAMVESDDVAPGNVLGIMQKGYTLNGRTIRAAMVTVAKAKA

T3: E. coli DnaJ (Escherichia coli, UniProt P08622 1-376)
T3 construct: source: E. coli (DE3) Rosetta pLysS, purified (IMAC, TEV cleavage, second IMAC)
T3 sequence: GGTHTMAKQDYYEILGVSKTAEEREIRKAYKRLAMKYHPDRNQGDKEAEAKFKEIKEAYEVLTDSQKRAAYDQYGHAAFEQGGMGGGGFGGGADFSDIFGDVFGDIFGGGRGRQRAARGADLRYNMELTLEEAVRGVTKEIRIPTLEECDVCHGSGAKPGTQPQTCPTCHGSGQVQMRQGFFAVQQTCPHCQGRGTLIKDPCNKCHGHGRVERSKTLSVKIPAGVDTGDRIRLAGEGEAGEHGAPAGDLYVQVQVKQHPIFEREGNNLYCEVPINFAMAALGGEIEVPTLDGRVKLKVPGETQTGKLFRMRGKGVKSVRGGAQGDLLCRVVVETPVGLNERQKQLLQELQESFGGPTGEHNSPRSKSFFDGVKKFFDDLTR

B1: Cf-peptide 102 (peptide)
peptide: Cf-RPFFPRPYLPLPRPPRPVR
notes: source: synthetic peptide, in-house (Fmoc/tBu chemistry on Rink amide resin), RP-HPLC purified
B2: peptide 103 (peptide)
peptide: [Ac6c]RPFFPRPYLPFPRPPRPVR-NH2
notes: source: synthetic peptide, bought: ABclonal, Inc
B3: peptide 45 (peptide)
peptide: [Ac6c]RPKKPRPYLPRLRPPRPVR-NH2
modifications: N-terminus assumed
SMILES: CC(C)C[C@H](NC(=O)[C@H](CCCNC(=N)N)NC(=O)[C@@H]1CCCN1C(=O)[C@H](CC(C)C)NC(=O)[C@H](Cc1ccc(O)cc1)NC(=O)[C@@H]1CCCN1C(=O)[C@H](CCCNC(=N)N)NC(=O)[C@@H]1CCCN1C(=O)[C@H](CCCCN)NC(=O)[C@H](CCCCN)NC(=O)[C@@H]1CCCN1C(=O)[C@H](CCCNC(=N)N)NC(=O)C1(N)CCCCC1)C(=O)N[C@@H](CCCNC(=N)N)C(=O)N1CCC[C@H]1C(=O)N1CCC[C@H]1C(=O)N[C@@H](CCCNC(=N)N)C(=O)N1CCC[C@H]1C(=O)N[C@H](C(=O)N[C@@H](CCCNC(=N)N)C(N)=O)C(C)C
notes: as for B2
B4: peptide 105 (peptide)
peptide: [Ac6c]RPFFPRPYLPRKRPPRPVR-NH2
notes: as for B2
B5: ARV-1502 (peptide)
peptide: [Ac6c]RPDKPRPYLPRPRPPRPVR-NH2
modifications: N-terminus assumed
SMILES: CC(C)C[C@H](NC(=O)[C@H](Cc1ccc(O)cc1)NC(=O)[C@@H]1CCCN1C(=O)[C@H](CCCNC(=N)N)NC(=O)[C@@H]1CCCN1C(=O)[C@H](CCCCN)NC(=O)[C@H](CC(=O)O)NC(=O)[C@@H]1CCCN1C(=O)[C@H](CCCNC(=N)N)NC(=O)C1(N)CCCCC1)C(=O)N1CCC[C@H]1C(=O)N[C@@H](CCCNC(=N)N)C(=O)N1CCC[C@H]1C(=O)N[C@@H](CCCNC(=N)N)C(=O)N1CCC[C@H]1C(=O)N1CCC[C@H]1C(=O)N[C@@H](CCCNC(=N)N)C(=O)N1CCC[C@H]1C(=O)N[C@H](C(=O)N[C@@H](CCCNC(=N)N)C(N)=O)C(C)C
B6: Cf-ARV-1502 (peptide)
peptide: Cf-RPDKPRPYLPRPRPPRPVR
notes: also called 5(6)-carboxyfluorescein-labeled ARV-1502; source: synthetic peptide, in-house (Fmoc/tBu chemistry on Rink amide resin), RP-HPLC purified

How the values were obtained:
S. aureus DnaK [1] = biological target: T4, S. aureus DnaK (Staphylococcus aureus, UniProt P99110 1-610); experiment: fluorescence polarisation; direct titration: protein serially diluted twofold in 23 steps, Cf-labeled peptide added (20 µL of 40 nmol/L to 20 µL); FP-buffer 20 mmol/L Tris-HCl, 150 mmol/L KCl, 5 mmol/L MgCl2, 1 mmol/L NaN3, 2 mmol/L DTT, pH 7.5; 2 h, 28°C, dark; settings: both partners purified
T4 construct: source: E. coli (DE3) Rosetta pLysS, purified (IMAC, TEV cleavage, second IMAC)

[2] = biological target: T5, E. coli DnaK/DnaJ/GrpE-chaperone system (Escherichia coli, UniProt P0A6Y8 1-638; P08622 1-376; P09372 1-197); experiment: fluorescence polarisation; as the direct titration, but with the full chaperone system: DnaK, DnaJ and GrpE (ratio 0.6:1.0:0.9) pre-incubated for 30 min at room temperature; settings: both partners purified
T5 construct: also called full chaperone system (E. coli); source: E. coli (DE3) Rosetta pLysS, each purified; mixed (ratio 0.6:1.0:0.9) and pre-incubated for 30 min at room temperature

[3] = biological target: T6, S. aureus DnaK/DnaJ/GrpE-chaperone system (Staphylococcus aureus, UniProt P99110 1-610; P63971 1-379; P99086 1-208); experiment: as above; settings: both partners purified
T6 construct: also called full chaperone system (S. aureus); source: E. coli (DE3) Rosetta pLysS, each purified; mixed (ratio 0.6:1.0:0.9) and pre-incubated for 30 min at room temperature

E. coli DnaK [4] = biological target: T7, E. coli DnaK (Escherichia coli, UniProt P0A6Y8 1-638); experiment: fluorescence polarisation; competition screen at one concentration: unlabeled peptide 5 µmol/L with 5 µmol/L E. coli DnaK, or 35 µmol/L with 16 µmol/L S. aureus DnaK, 90 min 28°C, then Cf-ARV-1502 (10 µL of 80 nmol/L), 90 min 28°C; duplicates; FP normalized to ARV-1502; settings: both partners purified
T7 construct: source: E. coli (DE3) Rosetta pLysS, purified (IMAC, TEV cleavage, second IMAC)

S. aureus DnaK [5] = biological target: T4, S. aureus DnaK; experiment: as above; settings: both partners purified
E. coli DnaK [6] = biological target: T7, E. coli DnaK; experiment: cell-based or functional assay
S. aureus GrpE = biological target: T1, S. aureus GrpE; experiment: fluorescence polarisation; direct titration: protein serially diluted twofold in 23 steps, Cf-labeled peptide added (20 µL of 40 nmol/L to 20 µL); FP-buffer 20 mmol/L Tris-HCl, 150 mmol/L KCl, 5 mmol/L MgCl2, 1 mmol/L NaN3, 2 mmol/L DTT, pH 7.5; 2 h, 28°C, dark; settings: both partners purified
E. coli GrpE = biological target: T2, E. coli GrpE; experiment: as above; settings: both partners purified
E. coli DnaK [7] = biological target: T7, E. coli DnaK; experiment: as above; settings: both partners purified
E. coli DnaJ = biological target: T3, E. coli DnaJ; experiment: as above; settings: both partners purified

Binder	Kd (S. aureus DnaK [1]) [µM]	Kd [2] [µM]	Kd [3] [µM]	binding result (E. coli DnaK [4])	binding result (S. aureus DnaK [5])	also measured
B1	1.6	0.6	1.6			
B2				binds	binds	
B3				binds	binds	
B4				binds	binds	
B5						refolding activity of the E. coli DnaK/DnaJ/GrpE-chaperone system (denatured luciferase refolding assay) at ARV-1502 concentrations ≥50 µmol/L, relative to no peptide (E. coli DnaK [6]): ~60%
B6	25.1	3.1	30.2			Kd (S. aureus GrpE): ~138 µM; Kd (E. coli GrpE): ~213 µM; Kd (E. coli DnaK [7]): 0.2 µM; Kd (E. coli DnaJ): ~33.4 µM
